Test results reported in article PMC6166989 (PLoS Pathogens, 2018).

Biological target: the molecule itself
Test: SEC

B1: PV-2C-[change] (poliovirus 2C^ATPase residues 116–329) (domain or fragment)
chain: SKHRIEPVCLLVHGSPGTGKSVATNLIARAIAERENTSTYSLPPDPSHFDGYKQQGVVIMDDLNQNPDGADMKLFCQMVSTVEFIPPMASLEEKGILFTSNYVLASTNSSRISPPTVAHSDALARRFAFDMDIQVMNEYSRDGKLNMAMATEMCKNCHQPANFKRCCPLVCGKAIQLMDKSSRVRYSIDQITTMIINERNRRSNIGNCMEALFQ
B1 was tested. Which “stoichiometry N” value did it give?
The value was 4.
